Data published in patent US20220298231A1 (AC IMMUNE, published 2022).

Columns and labels:
[1] = biological target: human full-length alpha-synuclein (human, UniProt P37840 1-140); experiment: SPR, 100 nM monomer, relative to chimeric;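 also: SPR with antibody variants captured via anti-human Fc IgG on an amine-coupled chip, isotype IgG1 reference channel subtracted, dissociation rate fitted by 1:1 or heterogeneous ligand model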
Description: (§1) Flow channels (Fc) 1-8 were activated with a fresh solution of EDC/NHS (Amine Coupling Kit, 1:1 ratio of both reagents, GE Healthcare Life Sciences, BR100050). […] The chip was deactivated by 1 M ethanolamine-HCl (GE Healthcare Life Sciences, BR100050) at a flow rate of 10 μL/min for 420 s.
(§2) A human IgG1 isotype control diluted in running buffer 1×HBS-EP+ (GE Healthcare Life Sciences, BR100669) was captured onto Fc1 via anti-human Fc IgG at a flow rate of 10 μL/min. […] 10 mM glycine pH 1.5 as regeneration buffer was injected following every dissociation phase.
(§3) The data for reference channel Fc1 and buffer channel were subtracted to generate the sensorgrams. The experimental data was fitted by 1:1 binding model or heterogeneous ligand model.

alpha-synuclein fibrils = alpha-synuclein fibrils (Homo sapiens (Human), UniProt P37840 1-140); experiment: SPR, 450 nM aggregates, relative to chimeric;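 also: surface plasmon resonance with anti-human Fc capture, human IgG1 isotype control channel and buffer run subtracted, dissociation rates fitted by 1:1 or heterogeneous ligand binding model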
Description: as §1, §2, §3

B1: hACI-7067-1101C8-Ab2_H2L1 (antibody, V domains shown)
VH: EVQLVESGGGLVQPGGSLKLSCAASGFSFNIYAMNWVRQAPGKGLEWVGRIRSKSNAYATYYAASVKGRFTISRDDSKNTLYLQMNNLKTEDTAVYYCVRVGLRFYAMDYWGQGTLVTVSS
VL: DVVMTQSPLSLPVTLGQPASISCRSSQSIVHSNANTYLEWYQQRPGQSPRLLIYKVSNRFSGVPDRFSGSGSGTDFTLKISRVEAEDLGVYYCFQGSQGPLTFGQGTKLEIK
notes: VH on human IgG1 constant, VL on human kappa constant
B1 showed a Relative koff [1] of 2 and a Relative koff (alpha-synuclein fibrils) of 0.5.

B2: hACI-7067-1101C8-Ab2_H2L4 (antibody, V domains shown)
VH: EVQLVESGGGLVQPGGSLKLSCAASGFSFNIYAMNWVRQAPGKGLEWVGRIRSKSNAYATYYAASVKGRFTISRDDSKNTLYLQMNNLKTEDTAVYYCVRVGLRFYAMDYWGQGTLVTVSS
VL: DVVMTQSPLSLPVTLGQPASISCRSSQSLVHSNANTYLEWFQQRPGQSPRLLIYKVSNRFSGVPDRFSGSGSGTDFTLKISRVEAEDLGVYYCFQGSQGPLTFGQGTKLEIK
notes: as for B1
B2 showed a Relative koff [1] of 0.1 and a Relative koff (alpha-synuclein fibrils) of 0.2.

B3: hACI-7067-1101C8-Ab2_H3L1 (antibody, V domains shown)
VH: EVQLVESGGGLVQPGGSLKLSCAASGFSFNIYAMNWVRQAPGKGLEWVGRIRSKSNAYATYYAASVKGRFTISRDDSKNTAYLQMNNLKTEDTAVYYCVRVGLRFYAMDYWGQGTLVTVSS
VL: DVVMTQSPLSLPVTLGQPASISCRSSQSIVHSNANTYLEWYQQRPGQSPRLLIYKVSNRFSGVPDRFSGSGSGTDFTLKISRVEAEDLGVYYCFQGSQGPLTFGQGTKLEIK
notes: as for B1
Binder B3 has a Relative koff [1] of 1 and a Relative koff (alpha-synuclein fibrils) of 213.

B4: hACI-7067-1101C8-Ab2_H5L4 (antibody, V domains shown)
VH: EVQLVESGGGLVQPGGSLKLSCAASGFSFNIYAMNWVRQAPGKGLEWVGRIRSKSNAYATYYAASVKGRFTISRDDSKNTLYLQMNNLKTEDTAVYYCTRVGLRFYAMDYWGQGTLVTVSS
VL: DVVMTQSPLSLPVTLGQPASISCRSSQSLVHSNANTYLEWFQQRPGQSPRLLIYKVSNRFSGVPDRFSGSGSGTDFTLKISRVEAEDLGVYYCFQGSQGPLTFGQGTKLEIK
notes: as for B1
In the case of B4, the Relative koff [1] is reported as 0.1 and the Relative koff (alpha-synuclein fibrils) is reported as 0.2.

B5: hACI-7067-1101C8-Ab2_H5L3 (antibody, V domains shown)
VH: EVQLVESGGGLVQPGGSLKLSCAASGFSFNIYAMNWVRQAPGKGLEWVGRIRSKSNAYATYYAASVKGRFTISRDDSKNTLYLQMNNLKTEDTAVYYCTRVGLRFYAMDYWGQGTLVTVSS
VL: DVVMTQSPLSLPVTLGQPASISCRSSQSIVHSNANTYLEWFQQRPGQSPRLLIYKVSNRFSGVPDRFSGSGSGTDFTLKISRVEAEDLGVYYCFQGSQGPLTFGQGTKLEIK
notes: as for B1
Work on B5 yielded a Relative koff [1] of 0.2 and a Relative koff (alpha-synuclein fibrils) of 0.2.

B6: hACI-7067-1101C8-Ab2_H1L2 (antibody, V domains shown)
VH: EVQLVESGGGLVQPGGSLKLSCAASGFSFNIYAMNWVRQAPGKGLEWVARIRSKSNAYATYYAASVKGRFTISRDDSKNTLYLQMNNLKTEDTAVYYCVRVGLRFYAMDYWGQGTLVTVSS
VL: DVVMTQSPLSLPVTLGQPASISCRSSQSLVHSNANTYLEWYQQRPGQSPRLLIYKVSNRFSGVPDRFSGSGSGTDFTLKISRVEAEDLGVYYCFQGSQGPLTFGQGTKLEIK
notes: as for B1
In the case of B6, the Relative koff [1] is reported as 0.6 and the Relative koff (alpha-synuclein fibrils) is reported as 131.

B7: hACI-7067-1101C8-Ab2_H1L4 (antibody, V domains shown)
VH: EVQLVESGGGLVQPGGSLKLSCAASGFSFNIYAMNWVRQAPGKGLEWVARIRSKSNAYATYYAASVKGRFTISRDDSKNTLYLQMNNLKTEDTAVYYCVRVGLRFYAMDYWGQGTLVTVSS
VL: DVVMTQSPLSLPVTLGQPASISCRSSQSLVHSNANTYLEWFQQRPGQSPRLLIYKVSNRFSGVPDRFSGSGSGTDFTLKISRVEAEDLGVYYCFQGSQGPLTFGQGTKLEIK
notes: as for B1
With B7 the Relative koff [1] was 0.1 and the Relative koff (alpha-synuclein fibrils) was 0.3.

B8: hACI-7067-1101C8-Ab2_H4L4 (antibody, V domains shown)
VH: EVQLVESGGGLVQPGGSLKLSCAASGFTFNIYAMNWVRQAPGKGLEWVGRIRSKSNAYATYYAASVKGRFTISRDDSKNTLYLQMNNLKTEDTAVYYCVRVGLRFYAMDYWGQGTLVTVSS
VL: DVVMTQSPLSLPVTLGQPASISCRSSQSLVHSNANTYLEWFQQRPGQSPRLLIYKVSNRFSGVPDRFSGSGSGTDFTLKISRVEAEDLGVYYCFQGSQGPLTFGQGTKLEIK
notes: as for B1
B8 gave a Relative koff [1] of 0.1 and a Relative koff (alpha-synuclein fibrils) of 0.3.

B9: hACI-7067-1101C8-Ab2_H1L1 (antibody, V domains shown)
VH: EVQLVESGGGLVQPGGSLKLSCAASGFSFNIYAMNWVRQAPGKGLEWVARIRSKSNAYATYYAASVKGRFTISRDDSKNTLYLQMNNLKTEDTAVYYCVRVGLRFYAMDYWGQGTLVTVSS
VL: DVVMTQSPLSLPVTLGQPASISCRSSQSIVHSNANTYLEWYQQRPGQSPRLLIYKVSNRFSGVPDRFSGSGSGTDFTLKISRVEAEDLGVYYCFQGSQGPLTFGQGTKLEIK
notes: as for B1
Work on B9 yielded a Relative koff [1] of 1.3 and a Relative koff (alpha-synuclein fibrils) of 851.

B10: hACI-7067-1101C8-Ab2_H3L4 (antibody, V domains shown)
VH: EVQLVESGGGLVQPGGSLKLSCAASGFSFNIYAMNWVRQAPGKGLEWVGRIRSKSNAYATYYAASVKGRFTISRDDSKNTAYLQMNNLKTEDTAVYYCVRVGLRFYAMDYWGQGTLVTVSS
VL: DVVMTQSPLSLPVTLGQPASISCRSSQSLVHSNANTYLEWFQQRPGQSPRLLIYKVSNRFSGVPDRFSGSGSGTDFTLKISRVEAEDLGVYYCFQGSQGPLTFGQGTKLEIK
notes: as for B1
Binder B10 has a Relative koff [1] of 0.1 and a Relative koff (alpha-synuclein fibrils) of 0.3.

B11: hACI-7067-1101C8-Ab2_H1L3 (antibody, V domains shown)
VH: EVQLVESGGGLVQPGGSLKLSCAASGFSFNIYAMNWVRQAPGKGLEWVARIRSKSNAYATYYAASVKGRFTISRDDSKNTLYLQMNNLKTEDTAVYYCVRVGLRFYAMDYWGQGTLVTVSS
VL: DVVMTQSPLSLPVTLGQPASISCRSSQSIVHSNANTYLEWFQQRPGQSPRLLIYKVSNRFSGVPDRFSGSGSGTDFTLKISRVEAEDLGVYYCFQGSQGPLTFGQGTKLEIK
notes: as for B1
For B11, the Relative koff [1] was 0.2 and the Relative koff (alpha-synuclein fibrils) was 0.3.

B12: hACI-7067-1101C8-Ab2_H4L3 (antibody, V domains shown)
VH: EVQLVESGGGLVQPGGSLKLSCAASGFTFNIYAMNWVRQAPGKGLEWVGRIRSKSNAYATYYAASVKGRFTISRDDSKNTLYLQMNNLKTEDTAVYYCVRVGLRFYAMDYWGQGTLVTVSS
VL: DVVMTQSPLSLPVTLGQPASISCRSSQSIVHSNANTYLEWFQQRPGQSPRLLIYKVSNRFSGVPDRFSGSGSGTDFTLKISRVEAEDLGVYYCFQGSQGPLTFGQGTKLEIK
notes: as for B1
Binder B12 has a Relative koff [1] of 0.2 and a Relative koff (alpha-synuclein fibrils) of 0.3.

B13: hACI-7067-1101C8-Ab2_H4L1 (antibody, V domains shown)
VH: EVQLVESGGGLVQPGGSLKLSCAASGFTFNIYAMNWVRQAPGKGLEWVGRIRSKSNAYATYYAASVKGRFTISRDDSKNTLYLQMNNLKTEDTAVYYCVRVGLRFYAMDYWGQGTLVTVSS
VL: DVVMTQSPLSLPVTLGQPASISCRSSQSIVHSNANTYLEWYQQRPGQSPRLLIYKVSNRFSGVPDRFSGSGSGTDFTLKISRVEAEDLGVYYCFQGSQGPLTFGQGTKLEIK
notes: as for B1
Work on B13 yielded a Relative koff [1] of 1.9 and a Relative koff (alpha-synuclein fibrils) of 0.5.

B14: hACI-7067-1101C8-Ab2_H2L3 (antibody, V domains shown)
VH: EVQLVESGGGLVQPGGSLKLSCAASGFSFNIYAMNWVRQAPGKGLEWVGRIRSKSNAYATYYAASVKGRFTISRDDSKNTLYLQMNNLKTEDTAVYYCVRVGLRFYAMDYWGQGTLVTVSS
VL: DVVMTQSPLSLPVTLGQPASISCRSSQSIVHSNANTYLEWFQQRPGQSPRLLIYKVSNRFSGVPDRFSGSGSGTDFTLKISRVEAEDLGVYYCFQGSQGPLTFGQGTKLEIK
notes: as for B1
For B14, the Relative koff [1] was 0.2 and the Relative koff (alpha-synuclein fibrils) was 0.3.

B15: hACI-7067-1101C8-Ab2_H2L2 (antibody, V domains shown)
VH: EVQLVESGGGLVQPGGSLKLSCAASGFSFNIYAMNWVRQAPGKGLEWVGRIRSKSNAYATYYAASVKGRFTISRDDSKNTLYLQMNNLKTEDTAVYYCVRVGLRFYAMDYWGQGTLVTVSS
VL: DVVMTQSPLSLPVTLGQPASISCRSSQSLVHSNANTYLEWYQQRPGQSPRLLIYKVSNRFSGVPDRFSGSGSGTDFTLKISRVEAEDLGVYYCFQGSQGPLTFGQGTKLEIK
notes: as for B1
For B15, the Relative koff [1] was 1.1 and the Relative koff (alpha-synuclein fibrils) was 1.9.

B16: hACI-7067-1101C8-Ab2_H3L2 (antibody, V domains shown)
VH: EVQLVESGGGLVQPGGSLKLSCAASGFSFNIYAMNWVRQAPGKGLEWVGRIRSKSNAYATYYAASVKGRFTISRDDSKNTAYLQMNNLKTEDTAVYYCVRVGLRFYAMDYWGQGTLVTVSS
VL: DVVMTQSPLSLPVTLGQPASISCRSSQSLVHSNANTYLEWYQQRPGQSPRLLIYKVSNRFSGVPDRFSGSGSGTDFTLKISRVEAEDLGVYYCFQGSQGPLTFGQGTKLEIK
notes: as for B1
With B16 the Relative koff [1] was 0.6 and the Relative koff (alpha-synuclein fibrils) was 1230.

B17: hACI-7067-1101C8-Ab2_H7L1 (antibody, V domains shown)
VH: EVQLVESGGGLVQPGGSLKLSCAASGFSFNIYAMNWVRQAPGKGLEWVARIRSKSNAYATYYAASVKGRFTISRDDSKNTLYLQMNNLKTEDTAVYYCVRVGLRFYATDYWGQGTLVTVSS
VL: DVVMTQSPLSLPVTLGQPASISCRSSQSIVHSNANTYLEWYQQRPGQSPRLLIYKVSNRFSGVPDRFSGSGSGTDFTLKISRVEAEDLGVYYCFQGSQGPLTFGQGTKLEIK
notes: as for B1
B17 was tested, and the Relative koff (alpha-synuclein fibrils) was 1420.

B18: hACI-7067-1101C8-Ab2_H5L2 (antibody, V domains shown)
VH: EVQLVESGGGLVQPGGSLKLSCAASGFSFNIYAMNWVRQAPGKGLEWVGRIRSKSNAYATYYAASVKGRFTISRDDSKNTLYLQMNNLKTEDTAVYYCTRVGLRFYAMDYWGQGTLVTVSS
VL: DVVMTQSPLSLPVTLGQPASISCRSSQSLVHSNANTYLEWYQQRPGQSPRLLIYKVSNRFSGVPDRFSGSGSGTDFTLKISRVEAEDLGVYYCFQGSQGPLTFGQGTKLEIK
notes: as for B1
In the case of B18, the Relative koff [1] is reported as 0.8 and the Relative koff (alpha-synuclein fibrils) is reported as 1.4.

B19: hACI-7067-1101C8-Ab2_H3L3 (antibody, V domains shown)
VH: EVQLVESGGGLVQPGGSLKLSCAASGFSFNIYAMNWVRQAPGKGLEWVGRIRSKSNAYATYYAASVKGRFTISRDDSKNTAYLQMNNLKTEDTAVYYCVRVGLRFYAMDYWGQGTLVTVSS
VL: DVVMTQSPLSLPVTLGQPASISCRSSQSIVHSNANTYLEWFQQRPGQSPRLLIYKVSNRFSGVPDRFSGSGSGTDFTLKISRVEAEDLGVYYCFQGSQGPLTFGQGTKLEIK
notes: as for B1
In the case of B19, the Relative koff [1] is reported as 0.1 and the Relative koff (alpha-synuclein fibrils) is reported as 0.2.

B20: hACI-7067-1101C8-Ab2_H4L2 (antibody, V domains shown)
VH: EVQLVESGGGLVQPGGSLKLSCAASGFTFNIYAMNWVRQAPGKGLEWVGRIRSKSNAYATYYAASVKGRFTISRDDSKNTLYLQMNNLKTEDTAVYYCVRVGLRFYAMDYWGQGTLVTVSS
VL: DVVMTQSPLSLPVTLGQPASISCRSSQSLVHSNANTYLEWYQQRPGQSPRLLIYKVSNRFSGVPDRFSGSGSGTDFTLKISRVEAEDLGVYYCFQGSQGPLTFGQGTKLEIK
notes: as for B1
B20 was tested, and the Relative koff [1] was 1.1 and the Relative koff (alpha-synuclein fibrils) was 1.6.
